Reference: patent publication EP4624486A1 (Guangdong Raynovent Biotech Co., Ltd., dated 2025)
Bridge positions count the residues as written; N and C are the ends. Square brackets hold non-standard residues; d marks the D form. Ends that are not written are not given here. stapled body chem0195 = not defined here; stapled body chem0208 = not defined here; stapled body chem0209 = not defined here; stapled body chem0212 = not defined here; stapled body chem0214 = not defined here; stapled body chem0215 = not defined here; αMeL = CC(C)C[C@](C)(N)C(=O)O; Orn = NCCC[C@H](N)C(=O)O; Aib = CC(C)(N)C(=O)O

Experiments:
Assay in all cases: cell-based or functional assay
GCG receptor (GCGR) = GCG receptor (GCGR) (UniProt P47871 26-477, limits assumed)
GIP receptor (GIPR) = biological target: T1, GIP receptor (GIPR) (UniProt P48546 22-466, limits assumed)
T1 sequence (looked up): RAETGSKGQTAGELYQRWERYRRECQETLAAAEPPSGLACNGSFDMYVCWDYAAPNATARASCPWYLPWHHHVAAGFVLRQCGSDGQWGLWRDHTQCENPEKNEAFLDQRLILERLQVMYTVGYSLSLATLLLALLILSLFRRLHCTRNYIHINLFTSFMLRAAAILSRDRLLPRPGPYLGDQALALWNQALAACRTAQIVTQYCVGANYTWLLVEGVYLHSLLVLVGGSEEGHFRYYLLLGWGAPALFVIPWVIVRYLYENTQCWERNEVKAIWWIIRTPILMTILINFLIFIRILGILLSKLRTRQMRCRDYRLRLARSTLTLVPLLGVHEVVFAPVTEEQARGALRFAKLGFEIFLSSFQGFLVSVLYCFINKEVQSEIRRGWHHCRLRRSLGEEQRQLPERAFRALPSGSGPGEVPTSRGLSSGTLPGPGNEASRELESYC

GLP-1 receptor (GLP-1R) = GLP-1 receptor (GLP-1R) (UniProt P43220 24-463, limits assumed)

Chain of GCG receptor (GCGR) (P47871 26-477 limits assumed): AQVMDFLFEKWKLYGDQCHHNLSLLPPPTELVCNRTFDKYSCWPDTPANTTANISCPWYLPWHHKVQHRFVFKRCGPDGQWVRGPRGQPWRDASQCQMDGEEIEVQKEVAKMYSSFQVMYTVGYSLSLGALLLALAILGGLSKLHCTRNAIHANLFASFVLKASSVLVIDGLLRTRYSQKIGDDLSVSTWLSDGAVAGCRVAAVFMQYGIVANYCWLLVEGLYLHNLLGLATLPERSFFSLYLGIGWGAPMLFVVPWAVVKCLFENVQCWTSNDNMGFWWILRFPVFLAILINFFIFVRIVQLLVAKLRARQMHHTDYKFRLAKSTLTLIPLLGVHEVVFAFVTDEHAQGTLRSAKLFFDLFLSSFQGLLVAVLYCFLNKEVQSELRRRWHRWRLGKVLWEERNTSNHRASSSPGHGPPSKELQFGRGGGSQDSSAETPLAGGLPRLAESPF

Row | Binder | GCG EC50 (nM); cAMP, agonistic activity (GCG receptor (GCGR)) [nM] | GIP-1 EC50 (nM); cAMP, agonistic activity (GIP receptor (GIPR)) [nM] | GLP-1 EC50 (nM); cAMP, agonistic activity (GLP-1 receptor (GLP-1R)) [nM]
1 | Y[Aib]QGTFTSDYSI[αMeL]LDKKAQ[Aib]AFIKWLLKGGPSSGAPPPS-NH2 (linker 24-28 via stapled body chem0195; reading uncertain; also: further groups not given here) [Example 2] | 0.279 | 0.001 | 0.009
2 | Y[Aib]QGTFTSDYSI[αMeL]LDKKAQ[Aib]AFIEKLLEGGPSSGAPPPS-NH2 (linker 25-28 via Lys, AEEA, γGlu, C20 diacid) [Example 3] | 1.68 | 0.003 | 0.025
3 | Y[Aib]QGTFTSDYSI[αMeL]LDKKAQ[Aib]KFIEYLLEGGPSSGAPPPS-NH2 (bridge 17-21; also: further groups not given here) [Example 7] | 0.061 | 0.0003 | 0.005
4 | Y[Aib]QGTFTSDYSI[αMeL]LDKKAQ[Aib]KFIEYLLEGGPSSGAPPPS-NH2 (bridge 17-21; also: stapled body between K17 and K21 is given only as a drawing, not in text) [Example 6] | 0.017 | 0.0005 | 0.005
5 | Y[Aib]QGTFTSDYSI[αMeL]LDKKAQ[Aib]AFIKYLLEGGPSSGAPPPS-NH2 (linker 17-24 via Ida, Lys, Lys, γGlu, C20 diacid) [Example 18] | 0.052 | 0.0004 | 0.008
6 | Y[Aib]QGTFTSDYSI[αMeL]KDKKAQ[Aib]AFIEYLLEGGPSSGAPPPS-NH2 (linker 14-17 via (2-2-oxoethyl)‑glycine, AEEA, γGlu, 19‑phosphonononadecanoic acid) [Example 43] | 0.042 |  | 
7 | H[Aib]HGTFTSDYSIYLEKKYA[Aib]EFVKWLLKGGPSSGAPPPS-NH2 (bridge 24-28; not fully specified (bridges); also: stapled body (lipidated) structure only in drawing chem0197) [Example 4] | 0.143 | 0.016 | 0.023
8 | Y[Aib]QGTFTSDYSI[αMeL]LDKKAQ[Aib][Orn]FIEYLLEGGPSSGAPPPS-NH2 (linker 17-21 via stapled body chem0215; reading uncertain; also: further groups not given here) [Example 17] | 0.016 | 0.0001 | 0.001
9 | Y[Aib]QGTFTSDYSI[αMeL]LDKKAQ[Aib]KFIEFLLEGGPSSGAPPPS-NH2 (linker 17-21 via Ida, Lys, Lys, γGlu, C20 diacid) [Example 22] | 0.034 | 0.0004 | 0.009
10 | Y[Aib]QGTFTSDYSI[αMeL]KDKKAQ[Aib]AFIEYLLEGGPSSGAPPPS-NH2 (linker 14-17 via (2-2-oxoethyl)‑glycine, AEEA, γGlu, C20 diacid) [Example 21] | 0.039 | 0.0008 | 0.02
11 | Y[Aib]QGTFTSDYSI[αMeL]LDKKAQ[Aib]KFIEYLLEGGPSSGAPPPS-NH2 (bridge 17-21) [Example 8] | 0.012 | 0.0004 | 0.004
12 | Y[Aib]QGTFTSDYSI[αMeL]LDKKAQ[Aib]EFIEYLLEGGPSSGAPPPS-NH2 (linker 17-21 via stapled body chem0208; reading uncertain; also: further groups not given here) [Example 10] | 0.057 | 0.0003 | 0.009
13 | Y[Aib]QGTFTSDYSI[αMeL]LDKKAQ[Aib]AFIKYLLEGGPSSGAPPPS-NH2 (linker 17-24 via stapled body chem0209; reading uncertain; also: further groups not given here) [Example 11] | 0.129 | 0.0003 | 0.006
14 | Y[Aib]QGTFTSDYSI[αMeL]LDKKAQ[Aib]KFIEYLLKGGPSSGAPPPS-NH2 (linker 21-28 via stapled body chem0212; reading uncertain; also: further groups not given here) [Example 14] | 0.028 | 0.0001 | 0.001
15 | Y[Aib]QGTFTSDYSI[αMeL]LDKKAQ[Aib][dK]FIEYLLEGGPSSGAPPPS-NH2 (linker 17-21 via stapled body chem0214; reading uncertain; also: further groups not given here) [Example 16] | 0.042 | 0.0001 | 0.002
16 | Y[Aib]QGTFTSDYSI[αMeL]LDKKAQ[Aib]KFIEFLLEGGPSSGAPPPS-NH2 (bridge 17-21; also: stapled body between K17 and K21 is given only as a drawing, not in text) [Example 9] | 0.022 | 0.0004 | 0.005
17 | H[Aib]HGTFTSDYSIYLEKKYA[Aib]KFVQWLLEGGPSSGAPPPS-NH2 (bridge 17-21; not fully specified (bridges); also: stapled body (lipidated) structure only in drawing chem0198) [Example 5] | 0.012 | 0.007 | 0.029
18 | Y[Aib]QGTFTSDYSI[αMeL]LDKKAQ[Aib]KFIEYLLEGGPSSGAPPPS-NH2 (linker 17-21 via Glu, AEEA, AEEA, γGlu, C20 diacid) [Example 12] | 0.007 | 0.0001 | 0.002
